The values below come from patent US20220218785A1 (ALPINE IMMUNE SCIENCES, published 2022).

Residue numbers refer to the chain shown, from its start. Names and notes keep the numbering of the source.

The target of assay [1] is T1, human CD28 (human, UniProt P10747 19-220).
T1 construct: whole, on cells
In words: flow cytometry, Expi293 cells with human CD28. From the text: (§1) Expi293 cells transfected with cognate binding partners, human CD28, ICOS and CTLA4, were used as target cells in binding studies.
A general note: Flow cytometry measures light scatter and fluorescence of single cells or particles in a stream.

The target in assay [2] is T2, human ICOS (human, UniProt Q9Y6W8 21-199).
T2 construct: whole, on cells
T2 sequence (looked up): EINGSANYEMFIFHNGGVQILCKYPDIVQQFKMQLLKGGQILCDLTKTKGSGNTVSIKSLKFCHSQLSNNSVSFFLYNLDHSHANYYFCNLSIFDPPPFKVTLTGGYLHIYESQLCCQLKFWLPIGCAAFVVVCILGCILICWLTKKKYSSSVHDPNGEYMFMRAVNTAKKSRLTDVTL
In words: flow cytometry, Expi293 cells with human ICOS. Here is the method:
Binding studies were carried out on transfected HEK293 cells generated to express the full-length mammalian (human) surface ligands, CD28, ICOS or CTLA-4, using a transient transfection system (Life Technologies, USA). As a control, binding to mock (non-transfected) cells also was assessed. For staining by flow cytometry, 200,000 cells of appropriate transient transfection or negative control (mock) were plated in 96 well round bottom plates, and, then incubated in staining buffer (PBS, phosphate buffered saline; 1% BSA, bovine serum albumin; and 0.1% sodium azide) for 20 minutes to block non-specific binding. Cells were resuspended in staining buffer containing 100 nM to 1 nM variant immunomodulatory protein in 50 μL. Mean Fluorescence Intensity (MFI) was calculated for each transfectant and negative parental line with Cell Quest Pro software (Becton Dickinson, USA) or a Hypercyt flow cytometer (Intellicyte, USA).
as §1

Assay [3] has as its target T3, human CTLA-4 (human, UniProt P16410 36-223).
T3 construct: whole, on cells
In words: flow cytometry, Expi293 cells with human CTLA-4.
From the text: as §1

Assay [4] addresses T1, human CD28. In words: flow cytometry, cells with human CD28; protein from 293.
Assay [5] concerns the target T1, human CD28. In words: flow cytometry, cells with human CD28; protein from CHO.
For assay [6], the target named is T2, human ICOS. In words: flow cytometry, cells with human ICOS; protein from 293.
The target of assay [7] is T2, human ICOS. In words: flow cytometry, cells with human ICOS; protein from CHO.
Assay [8] concerns the target T3, human CTLA-4. In words: flow cytometry, cells with human CTLA-4; protein from 293.
Assay [9] deals with T3, human CTLA-4. In words: flow cytometry, cells with human CTLA-4; protein from CHO.
Assay [10] deals with T1, human CD28. In words: flow cytometry, cells with human CD28; protein from CHO. The source holds these as a separate data set.
For assay [11], the target named is T2, human ICOS. In words: flow cytometry, cells with human ICOS; protein from CHO. The source holds these as a separate data set.
The target in assay [12] is T3, human CTLA-4. In words: flow cytometry, cells with human CTLA-4; protein from CHO. This is another data set of the same source.

T3 sequence (P16410 36-223): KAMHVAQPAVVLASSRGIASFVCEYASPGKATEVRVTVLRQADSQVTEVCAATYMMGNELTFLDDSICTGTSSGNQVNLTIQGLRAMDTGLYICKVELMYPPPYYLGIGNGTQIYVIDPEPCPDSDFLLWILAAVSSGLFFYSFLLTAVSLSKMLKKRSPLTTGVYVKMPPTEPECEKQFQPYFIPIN

B1: variant ICOSL ECD-Fc N52H/N57Y/Q100R/F172S, G4S linker, Fc C220S/L234A/L235E/G237A (SEQ ID NO: 40) (Fc fusion)
chain: DTQEKEVRAMVGSDVELSCACPEGSRFDLNDVYVYWQTSESKTVVTYHIPQHSSLEYVDSRYRNRALMSPAGMLRGDFSLRLFNVTPQDEQKFHCLVLSRSLGFQEVLSVEVTLHVAANFSVPVVSAPHSPSQDELTFTCTSINGYPRPNVYWINKTDNSLLDQALQNDTVSLNMRGLYDVVSVLRIARTPSVNIGCCIENVLLQQNLTVGSQTGNDIGERDKITENPVSTGEKNAATGGGGSEPKSSDKTHTCPPCPAPEAEGAPSVFLFPPKPKDTLMISRTPEVTCVVVDVSHEDPEVKFNWYVDGVEVHNAKTKPREEQYNSTYRVVSVLTVLHQDWLNGKEYKCKVSNKALPAPIEKTISKAKGQPREPQVYTLPPSREEMTKNQVSLTCLVKGFYPSDIAVEWESNGQPENNYKTTPPVLDSDGSFFLYSKLTVDKSRWQQGNVFSCSVMHEALHNHYTQKSLSLSPGK
notes: Made in 293 cells; Fc or allotypes thereof
Take B1: the entries for the “MFI (ΔWT)” value with human CD28 [1], with human ICOS [2] and with human CTLA-4 [3] were 12.9 fold vs WT, 1.4 fold vs WT and 22.7 fold vs WT, respectively.

B2: variant ICOSL ECD-Fc N52H/N57Y/Q100P, G4S linker, Fc C220S/L234A/L235E/G237A (SEQ ID NO: 40) (Fc fusion)
chain: B1 chain with R100P, S172F
notes: as for B1
Consider B2, for which the “MFI (ΔWT)” value turned out to be 13.4 fold vs WT with human CD28 [1], 1.3 fold vs WT in the assay with human ICOS [2] and 17.1 fold vs WT in the assay with human CTLA-4 [3].

B3: ICOSL ECD Truncation #7 with N52H/N57Y/Q100R/F172S, Fc fusion (Fc fusion)
chain: DTQEKEVRAMVGSDVELSCACPEGSRFDLNDVYVYWQTSESKTVVTYHIPQHSSLEYVDSRYRNRALMSPAGMLRGDFSLRLFNVTPQDEQKFHCLVLSRSLGFQEVLSVEVTLHVAANFSVPVVSAPHSPSQDELTFTCTSINGYPRPNVYWINKTDNSLLDQALQNDTVSLNMRGLYDVVSVLRIARTPSVNIGCCIENGGGGSGGGGSEPKSSDKTHTCPPCPAPEAEGAPSVFLFPPKPKDTLMISRTPEVTCVVVDVSHEDPEVKFNWYVDGVEVHNAKTKPREEQYNSTYRVVSVLTVLHQDWLNGKEYKCKVSNKALPAPIEKTISKAKGQPREPQVYTLPPSREEMTKNQVSLTCLVKGFYPSDIAVEWESNGQPENNYKTTPPVLDSDGSFFLYSKLTVDKSRWQQGNVFSCSVMHEALHNHYTQKSLSLSPG
Take B3: the “MFI (ΔWT)” value stood at 3.4 fold vs WT in the assay with human CD28 [4]; 3.7 fold vs WT with human CD28 [5]; 0.7 fold vs WT with human ICOS [6]; 0.7 fold vs WT in the assay with human ICOS [7]; 0.8 fold vs WT with human CTLA-4 [8]; 0.7 fold vs WT in the assay with human CTLA-4 [9].

B4: variant ICOSL ECD-Fc N52H/N57Y/Q100P, AAA linker, Fc C220S/L234A/L235E/G237A (SEQ ID NO: 40) (Fc fusion)
chain: DTQEKEVRAMVGSDVELSCACPEGSRFDLNDVYVYWQTSESKTVVTYHIPQHSSLEYVDSRYRNRALMSPAGMLRGDFSLRLFNVTPQDEQKFHCLVLSPSLGFQEVLSVEVTLHVAANFSVPVVSAPHSPSQDELTFTCTSINGYPRPNVYWINKTDNSLLDQALQNDTVFLNMRGLYDVVSVLRIARTPSVNIGCCIENVLLQQNLTVGSQTGNDIGERDKITENPVSTGEKNAATAAAEPKSSDKTHTCPPCPAPEAEGAPSVFLFPPKPKDTLMISRTPEVTCVVVDVSHEDPEVKFNWYVDGVEVHNAKTKPREEQYNSTYRVVSVLTVLHQDWLNGKEYKCKVSNKALPAPIEKTISKAKGQPREPQVYTLPPSREEMTKNQVSLTCLVKGFYPSDIAVEWESNGQPENNYKTTPPVLDSDGSFFLYSKLTVDKSRWQQGNVFSCSVMHEALHNHYTQKSLSLSPGK
notes: as for B1
Consider B4, for which the “MFI (ΔWT)” value was 13.1 fold vs WT in the assay with human CD28 [1], 1.2 fold vs WT in the assay with human ICOS [2] and 18.2 fold vs WT in the assay with human CTLA-4 [3].

B5: variant ICOSL ECD-Fc N52H/N57Y/Q100R/F172S, AAA linker, Fc C220S/L234A/L235E/G237A (SEQ ID NO: 40) (Fc fusion)
chain: B4 chain with P100R, F172S
notes: as for B1
As to B5, the “MFI (ΔWT)” value worked out at 12.5 fold vs WT with human CD28 [1], 1.3 fold vs WT with human ICOS [2] and 20.6 fold vs WT with human CTLA-4 [3].

B6: ICOSL ECD with N52H/N57Y/Q100R/C198R, Fc C220S/L234A/L235E/G237A (SEQ ID NO: 40) (Fc fusion, not shown: small tags and cut ends)
chain (part 1 of 2): DTQEKEVRAMVGSDVELSCACPEGSRFDLNDVYVYWQTSESKTVVTYHIPQHSSLEYVDSRYRNRALMSPAGMLRGDFSLRLFNVTPQDEQKFHCLVLSRSLGFQEVLSVEVTLHVAANFSVPVVSAPHSPSQDELTFTCTSINGYPRPNVYWINKTDNSLLDQALQNDTVFLNMRGLYDVVSVLRIARTPSVNIGCRIENVLLQQNLTVGSQTGNDIGERDKITENPVSTGEKNAAT
chain (part 2 of 2): EPKSSDKTHTCPPCPAPEAEGAPSVFLFPPKPKDTLMISRTPEVTCVVVDVSHEDPEVKFNWYVDGVEVHNAKTKPREEQYNSTYRVVSVLTVLHQDWLNGKEYKCKVSNKALPAPIEKTISKAKGQPREPQVYTLPPSREEMTKNQVSLTCLVKGFYPSDIAVEWESNGQPENNYKTTPPVLDSDGSFFLYSKLTVDKSRWQQGNVFSCSVMHEALHNHYTQKSLSLSPGK
On to B6, for which the MFI with human ICOS [7] stood at 7700 MFI; with human CTLA-4 [8] it was 8720 MFI; with human CTLA-4 [9] it was 8750 MFI. The “MFI (ΔWT)” value with human ICOS [7], in the assay with human CTLA-4 [8] and with human CTLA-4 [9] was 0.7 fold vs WT each time.

B7: ICOSL ECD Truncation #4 with N52H/N57Y/Q100R/F172S, Fc fusion (Fc fusion)
chain: DTQEKEVRAMVGSDVELSCACPEGSRFDLNDVYVYWQTSESKTVVTYHIPQHSSLEYVDSRYRNRALMSPAGMLRGDFSLRLFNVTPQDEQKFHCLVLSRSLGFQEVLSVEVTLHVAANFSVPVVSAPHSPSQDELTFTCTSINGYPRPNVYWINKTDNSLLDQALQNDTVSLNMRGLYDVVSVLRIARTPSVNIGCCIENVLLQQNGGGGSGGGGSEPKSSDKTHTCPPCPAPEAEGAPSVFLFPPKPKDTLMISRTPEVTCVVVDVSHEDPEVKFNWYVDGVEVHNAKTKPREEQYNSTYRVVSVLTVLHQDWLNGKEYKCKVSNKALPAPIEKTISKAKGQPREPQVYTLPPSREEMTKNQVSLTCLVKGFYPSDIAVEWESNGQPENNYKTTPPVLDSDGSFFLYSKLTVDKSRWQQGNVFSCSVMHEALHNHYTQKSLSLSPG
Turning to B7, the “MFI (ΔWT)” value was 39.7 fold vs WT with human CD28 [10]; 1.3 fold vs WT in the assay with human ICOS [11]; 4.1 fold vs WT in the assay with human CD28 [4]; 3.6 fold vs WT in the assay with human CD28 [5]; 0.6 fold vs WT in the assay with human ICOS [6]; 0.7 fold vs WT with human ICOS [7]. Also, the “MFI (ΔWT)” value was found to be 49.8 fold vs WT in the assay with human CTLA-4 [12], 0.7 fold vs WT with human CTLA-4 [8] and 0.7 fold vs WT with human CTLA-4 [9].

B8: variant ICOSL ECD-Fc N52H/N57Y/Q100R/F172S, AAA linker, Fc C220S/E233P/L234V/L235A/G236del/S267K (SEQ ID NO: 44) (Fc fusion)
chain: DTQEKEVRAMVGSDVELSCACPEGSRFDLNDVYVYWQTSESKTVVTYHIPQHSSLEYVDSRYRNRALMSPAGMLRGDFSLRLFNVTPQDEQKFHCLVLSRSLGFQEVLSVEVTLHVAANFSVPVVSAPHSPSQDELTFTCTSINGYPRPNVYWINKTDNSLLDQALQNDTVSLNMRGLYDVVSVLRIARTPSVNIGCCIENVLLQQNLTVGSQTGNDIGERDKITENPVSTGEKNAATAAAEPKSSDKTHTCPPCPAPPVAGPSVFLFPPKPKDTLMISRTPEVTCVVVDVKHEDPEVKFNWYVDGVEVHNAKTKPREEQYNSTYRVVSVLTVLHQDWLNGKEYKCKVSNKALPAPIEKTISKAKGQPREPQVYTLPPSREEMTKNQVSLTCLVKGFYPSDIAVEWESNGQPENNYKTTPPVLDSDGSFFLYSKLTVDKSRWQQGNVFSCSVMHEALHNHYTQKSLSLSPGK
notes: as for B1
Take B8: the figures for the “MFI (ΔWT)” value in the assay with human CD28 [1], with human ICOS [2] and with human CTLA-4 [3] were 10.9 fold vs WT, 1.3 fold vs WT and 20.5 fold vs WT, respectively.

B9: variant ICOSL ECD-Fc N52H/N57Y/Q100P, AAA linker, Fc C220S/E233P/L234V/L235A/G236del/S267K (SEQ ID NO: 44) (Fc fusion)
chain: B8 chain with R100P, S172F
notes: as for B1
In the case of B9, the “MFI (ΔWT)” value amounted to 13.3 fold vs WT in the assay with human CD28 [1], 1.3 fold vs WT in the assay with human ICOS [2] and 33.5 fold vs WT in the assay with human CTLA-4 [3].
